From the supplement of paper PMC9112550, “Optimization of the antimicrobial peptide Bac7 by deep mutational scanning” (BMC Biology, 2022)

Test system: Escherichia coli TOP10
Experiment: shrunken log2 fold change of peptide-encoding DNA abundance (4.5 h post-induction vs induction); higher = less antimicrobial activity (less host growth inhibition)
Settings: time post-induction: 4.5 h; library: site-saturation at positions 5, 18, 19, 20
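Note: peptides expressed intracellularly from a pBAD plasmid library in pooled LB shake-flask culture, induced with 0.3% L-arabinose, DNA abundance read by NGS, three biological replicates, DESeq2 with apeglm shrinkage.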

Sequence | shrunken log2 fold change
RRIRFRPPRLPRPRPRPKIEPRP | -0.202
RRIRLRPPRLPRPRPRPNRLPRP | -0.0858
RRIRKRPPRLPRPRPRPTNDPRP | 0.191
RRIRFRPPRLPRPRPRPYADPRP | -0.0222
RRIRKRPPRLPRPRPRPCQRPRP | -0.00088
RRIRLRPPRLPRPRPRPTKRPRP | 0.00619
RRIRKRPPRLPRPRPRPALQPRP | 0.493
RRIRDRPPRLPRPRPRPDDDPRP | -0.00186
RRIRKRPPRLPRPRPRPFCWPRP | 0.48
RRIRTRPPRLPRPRPRPRILPRP | -0.0615
RRIRIRPPRLPRPRPRPCGKPRP | -0.025
RRIRERPPRLPRPRPRPDRRPRP | 0.0868
RRIRPRPPRLPRPRPRPANLPRP | -0.12
RRIRHRPPRLPRPRPRPHFHPRP | -0.648
RRIRGRPPRLPRPRPRPELGPRP | 1.45
RRIRERPPRLPRPRPRPMDKPRP | -0.219
RRIRHRPPRLPRPRPRPDYEPRP | 0.00408
RRIRRRPPRLPRPRPRPCSMPRP | 0.464
RRIRSRPPRLPRPRPRPYHIPRP | -0.845
RRIRNRPPRLPRPRPRPQNHPRP | -0.685
RRIRCRPPRLPRPRPRPAIGPRP | -0.135
RRIRQRPPRLPRPRPRPPCLPRP | -0.192
RRIRFRPPRLPRPRPRPFQAPRP | -0.91
RRIRSRPPRLPRPRPRPHPHPRP | -0.168
RRIRARPPRLPRPRPRPHYTPRP | 0.203

Sequence | shrunken log2 fold change
RRIRKRPPRLPRPRPRPSYFPRP | -0.029
RRIRKRPPRLPRPRPRPQWAPRP | -0.0368
RRIRWRPPRLPRPRPRPLFHPRP | -0.0933
RRIRSRPPRLPRPRPRPEGEPRP | 0.809
RRIRYRPPRLPRPRPRPSPLPRP | -0.55
RRIRKRPPRLPRPRPRPRENPRP | 0.559
RRIRPRPPRLPRPRPRPMPYPRP | -0.41
RRIRIRPPRLPRPRPRPFEQPRP | -0.0348
RRIRPRPPRLPRPRPRPGFGPRP | 0.752
RRIRERPPRLPRPRPRPYRFPRP | -0.708
RRIRTRPPRLPRPRPRPLLSPRP | 0.0198
RRIRKRPPRLPRPRPRPQFDPRP | -0.0088
RRIRERPPRLPRPRPRPNGAPRP | 0.0556
RRIRHRPPRLPRPRPRPIANPRP | -0.24
RRIRDRPPRLPRPRPRPCCSPRP | 0.166
RRIRPRPPRLPRPRPRPPNGPRP | 0.593
RRIRQRPPRLPRPRPRPVYNPRP | -0.0538
RRIRSRPPRLPRPRPRPKNKPRP | -0.242
RRIRSRPPRLPRPRPRPPQMPRP | 0.154
RRIRPRPPRLPRPRPRPQDAPRP | 0.355
RRIRFRPPRLPRPRPRPGDEPRP | 0.0387
RRIRMRPPRLPRPRPRPPLTPRP | 0.843
RRIRVRPPRLPRPRPRPLGEPRP | -0.162
RRIRARPPRLPRPRPRPCVVPRP | 0.198
RRIRFRPPRLPRPRPRPEGQPRP | 0.15

Sequence | shrunken log2 fold change
RRIRHRPPRLPRPRPRPWWCPRP | -0.034
RRIRYRPPRLPRPRPRPIEQPRP | -0.00931
RRIRSRPPRLPRPRPRPLDIPRP | 0.00915
RRIRVRPPRLPRPRPRPEHIPRP | -0.0362
RRIRCRPPRLPRPRPRPKNCPRP | 0.0619
RRIRYRPPRLPRPRPRPGMYPRP | -1.44
RRIRMRPPRLPRPRPRPTQGPRP | 0.805
RRIRSRPPRLPRPRPRPFWNPRP | -0.139
RRIRDRPPRLPRPRPRPFHHPRP | -0.886
RRIRNRPPRLPRPRPRPKHVPRP | -0.0669
RRIRNRPPRLPRPRPRPAYHPRP | -0.385
RRIRIRPPRLPRPRPRPLIDPRP | -0.42
RRIRVRPPRLPRPRPRPGYNPRP | -0.193
RRIRIRPPRLPRPRPRPFCIPRP | -0.581
RRIRQRPPRLPRPRPRPDMFPRP | 0.0212
RRIRHRPPRLPRPRPRPQRPPRP | 0.183
RRIRYRPPRLPRPRPRPAWFPRP | -0.0816
RRIRVRPPRLPRPRPRPPIIPRP | -0.222
RRIRSRPPRLPRPRPRPTVSPRP | -0.221
RRIRQRPPRLPRPRPRPDAMPRP | 0.0556
RRIRKRPPRLPRPRPRPNWNPRP | -0.191
RRIRWRPPRLPRPRPRPDRLPRP | -0.0216
RRIRARPPRLPRPRPRPGIMPRP | 0.113
RRIRVRPPRLPRPRPRPGEHPRP | -0.035
RRIRIRPPRLPRPRPRPPWSPRP | 0.219

Sequence | shrunken log2 fold change
RRIRVRPPRLPRPRPRPVRNPRP | 0.105
RRIRNRPPRLPRPRPRPHASPRP | 0.065
RRIRNRPPRLPRPRPRPFPKPRP | 0.0299
RRIRKRPPRLPRPRPRPQRLPRP | 0.308
RRIRQRPPRLPRPRPRPQTQPRP | 0.025
RRIRGRPPRLPRPRPRPTSTPRP | 1.05
RRIRPRPPRLPRPRPRPDVPPRP | -0.0575
RRIRRRPPRLPRPRPRPDCQPRP | -0.00305
RRIRSRPPRLPRPRPRPIRWPRP | 0.0723
RRIRTRPPRLPRPRPRPHKNPRP | -0.415
RRIRWRPPRLPRPRPRPADSPRP | -0.29
RRIRWRPPRLPRPRPRPRVRPRP | 0.563
RRIRCRPPRLPRPRPRPTVHPRP | -0.413
RRIRIRPPRLPRPRPRPSINPRP | -1.03
RRIRTRPPRLPRPRPRPIVTPRP | 1.13
RRIRCRPPRLPRPRPRPVHNPRP | -0.415
RRIRGRPPRLPRPRPRPYCEPRP | 0.22
RRIRLRPPRLPRPRPRPMPDPRP | -0.00255
RRIRSRPPRLPRPRPRPEQAPRP | 0.289
RRIRMRPPRLPRPRPRPHCAPRP | 1.76
RRIRSRPPRLPRPRPRPEQGPRP | 0.0683
RRIRSRPPRLPRPRPRPDWFPRP | 0.0986
RRIRSRPPRLPRPRPRPEFGPRP | 0.358
RRIRTRPPRLPRPRPRPQSHPRP | -0.207
RRIRSRPPRLPRPRPRPTDMPRP | 0.0156

Sequence | shrunken log2 fold change
RRIRWRPPRLPRPRPRPYWRPRP | 0.00194
RRIRQRPPRLPRPRPRPPRFPRP | 1.51
RRIRRRPPRLPRPRPRPWHPPRP | 0.0925
RRIRHRPPRLPRPRPRPTHRPRP | 0.0822
RRIRMRPPRLPRPRPRPVSHPRP | 0.259
RRIRIRPPRLPRPRPRPMTEPRP | 0.0149
RRIRSRPPRLPRPRPRPAYGPRP | -0.122
RRIRPRPPRLPRPRPRPTCPPRP | 0.0562
RRIRWRPPRLPRPRPRPTMMPRP | 0.113
RRIRKRPPRLPRPRPRPIDYPRP | -0.0337
RRIRMRPPRLPRPRPRPEIRPRP | -0.0241
RRIRLRPPRLPRPRPRPHHNPRP | -0.547
RRIRHRPPRLPRPRPRPSPAPRP | 0.108
RRIRWRPPRLPRPRPRPYWFPRP | -0.0484
RRIRVRPPRLPRPRPRPLLNPRP | 0.159
RRIRWRPPRLPRPRPRPSPEPRP | 0.383
RRIRTRPPRLPRPRPRPCSSPRP | -0.0634
RRIRMRPPRLPRPRPRPCDWPRP | 0.179
RRIRFRPPRLPRPRPRPMRTPRP | 0.547
RRIRARPPRLPRPRPRPHYQPRP | -0.459
RRIRQRPPRLPRPRPRPSYNPRP | -0.723
RRIRYRPPRLPRPRPRPCKWPRP | -0.063
RRIRVRPPRLPRPRPRPPEMPRP | 0.116
RRIRGRPPRLPRPRPRPPPKPRP | 1.7
RRIRHRPPRLPRPRPRPNYSPRP | -0.915
